# Earlier results in publication PMC3777542.
# Legend:
# [1] = target: CD4 cytoplasmic tail (Homo sapiens) (UniProt P01730)
# Hck SH3 (Homo sapiens) = Hck SH3 (Homo sapiens) (UniProt P08631)
# Hck (Homo sapiens) = Hck (Homo sapiens) (UniProt P08631)
# [2] = target: AP-2 hemicomplex (Homo sapiens) (UniProt O95782); assay: SPR
# Sequence of UniProt O95782 (O95782 whole entry, chain 1 of 2): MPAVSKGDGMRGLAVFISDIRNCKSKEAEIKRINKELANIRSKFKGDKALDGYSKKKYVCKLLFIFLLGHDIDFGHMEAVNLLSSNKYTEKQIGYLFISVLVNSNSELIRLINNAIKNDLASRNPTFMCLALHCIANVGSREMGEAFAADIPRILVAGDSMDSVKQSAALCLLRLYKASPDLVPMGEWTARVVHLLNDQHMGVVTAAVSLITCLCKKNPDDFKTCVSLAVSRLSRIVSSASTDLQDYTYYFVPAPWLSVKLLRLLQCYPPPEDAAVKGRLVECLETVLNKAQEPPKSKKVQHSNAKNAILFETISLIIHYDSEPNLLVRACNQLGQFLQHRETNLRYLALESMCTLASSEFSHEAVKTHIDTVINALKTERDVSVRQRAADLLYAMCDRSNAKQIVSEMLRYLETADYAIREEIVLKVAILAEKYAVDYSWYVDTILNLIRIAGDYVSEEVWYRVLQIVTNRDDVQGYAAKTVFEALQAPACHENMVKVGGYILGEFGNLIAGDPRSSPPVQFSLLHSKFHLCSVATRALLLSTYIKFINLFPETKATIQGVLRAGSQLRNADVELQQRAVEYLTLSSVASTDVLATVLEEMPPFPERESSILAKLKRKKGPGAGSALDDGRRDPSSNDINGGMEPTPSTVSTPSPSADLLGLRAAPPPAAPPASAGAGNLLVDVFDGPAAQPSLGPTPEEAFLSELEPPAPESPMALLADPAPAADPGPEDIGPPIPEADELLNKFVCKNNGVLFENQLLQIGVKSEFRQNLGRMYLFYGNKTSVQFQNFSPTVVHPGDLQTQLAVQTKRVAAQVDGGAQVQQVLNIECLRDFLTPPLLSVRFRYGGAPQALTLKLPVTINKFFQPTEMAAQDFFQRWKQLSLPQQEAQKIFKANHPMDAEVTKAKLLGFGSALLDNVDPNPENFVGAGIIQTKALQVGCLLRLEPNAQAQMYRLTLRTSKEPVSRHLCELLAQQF
# Sequence of UniProt O95782 (B2R4Z4 whole entry, chain 2 of 2, further chain): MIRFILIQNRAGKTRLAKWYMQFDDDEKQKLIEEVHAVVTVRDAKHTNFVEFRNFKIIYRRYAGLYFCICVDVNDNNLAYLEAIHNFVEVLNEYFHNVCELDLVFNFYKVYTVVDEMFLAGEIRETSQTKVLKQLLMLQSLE
substance,measurement,setting,value
Nef (from UniProt P04324),Kd,[1],1000 nM
same,Kd,Hck SH3 (Homo sapiens),260 nM
same,Kd,Hck (Homo sapiens),200 nM
same,Kd,[2],6000 nM
